In the supplement of paper PMC7877785:
± gives the uncertainty stated by the source.

Test: self-splicing fitness, log relative to wild type (ln ratio); higher = more splicing; Tetrahymena group I intron in knt gene, E. coli kanamycin selection, DiMSum; sequences stand for … in CUCUCU…GGAGGGAAAAGUUAUCAGGCAUGCACCUGGUAGCUAGUCUUUAAACCAAUAGAUUGCAUCGGUUUAAAAGGCAAGACCGUCAAAUUGCGGGAAAGGGGUCAACAGCCGUUCAGUACCAAGUCUCAGGGGAAACUUUGAGAUGGCCUUGCAAAGGGUAUGGUAAUAAGCUGACGGACAUGGUCCUAACCACGCAGCCAAGUCCUAAGUCAACAGAUCUUCUGUUGAUAUGGAUGCAGUUCACAGACUAAAUGUCGGUCGGGGAAGAUGUAUUCUUCUCAUAAGAUAUAGUCGGACCUCUCCUUAAUGGGAGCUAGCGGAUGAAGUGAUGCAACACUGGAGCCGCUGGGAACUAAUUUGUAUGCGAAAGUAUAUUGAUUAGUUUUGGAGUACUCGUGGUCG
Outline: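 Colonies from six replicate transformations of E. coli BL21(DE3) were pooled and amplicon-sequenced on an Illumina HiSeq 2500. The library placed an intron with all eight P1ex-region nucleotides randomised inside the knt kanamycin-resistance gene on pET-22b(+), and cells grew overnight at 37°C or 30°C on LB agar with or without 25 μg/mL kanamycin (plus 100 μg/mL carbenicillin, 50 μM IPTG, 0.2% rhamnose). Fitness is the DiMSum error-weighted combination of wild-type-normalised replicate fold changes, kanamycin versus none.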

Sequence | self-splicing fitness (ln) (30 °C) | self-splicing fitness (ln) (37 °C)
CUACAGCAAUAUUACGAAUA | -3.07 ± 0.41 | -2.21 ± 0.27
GGCGAGCAAUAUUACGUUCG | -3.74 ± 0.27 | -1.59 ± 0.3
GCCUAGCAAUAUUACGUCUA | -3.26 ± 0.38 | -1.73 ± 0.2
GUUCAGCAAUAUUACGCGCA | -1.04 ± 0.2 | 0.567 ± 0.21
GCUUAGCAAUAUUACGAGCU | -2.37 ± 0.19 | -1.89 ± 0.34
CUACAGCAAUAUUACGCGAA | -2.83 ± 0.18 | -3.89 ± 0.31
AUAGAGCAAUAUUACGAAUU | -0.889 ± 0.15 | -0.429 ± 0.23
AUGCAGCAAUAUUACGAGUA | -2.98 ± 0.19 | -1.53 ± 0.13
UCACAGCAAUAUUACGACGC | -2.07 ± 0.15 | -1.03 ± 0.2
CAUCAGCAAUAUUACGUCUC | -3.16 ± 0.19 | -1.75 ± 0.17
UGGAAGCAAUAUUACGACCU | 0.308 ± 0.11 | 0.699 ± 0.12
UCCAAGCAAUAUUACGAGUA | -0.957 ± 0.099 | -0.576 ± 0.084
CUCAAGCAAUAUUACGGGCG | -2.1 ± 0.086 | -1.34 ± 0.094
ACCCAGCAAUAUUACGCCUG | -2.21 ± 0.12 | -3 ± 0.26
GGAUAGCAAUAUUACGAUCA | 0.409 ± 0.12 | 0.227 ± 0.12
GGGCAGCAAUAUUACGGUGA | -0.844 ± 0.074 | -0.671 ± 0.088
AGGCAGCAAUAUUACGGGAG | -4.08 ± 0.22 | -1.53 ± 0.12
CUCCAGCAAUAUUACGUACC | -3.31 ± 0.29 | -1.19 ± 0.32
CCGGAGCAAUAUUACGUCGU | -3.43 ± 0.22 | -1.51 ± 0.18
ACGGAGCAAUAUUACGAGGC | -2.43 ± 0.19 | -2.07 ± 0.31
UAACAGCAAUAUUACGUCUA | -0.13 ± 0.049 | 0.144 ± 0.06
UACCAGCAAUAUUACGACAC | -2.34 ± 0.13 | -1.16 ± 0.15
ACCGAGCAAUAUUACGGUAG | -3.75 ± 0.23 | -2.73 ± 0.24
UUGUAGCAAUAUUACGAUAA | -1.44 ± 0.11 | -0.33 ± 0.17
CACCAGCAAUAUUACGCGGC | -2.68 ± 0.21 | -2.72 ± 0.29

Sequence | self-splicing fitness (ln) (30 °C) | self-splicing fitness (ln) (37 °C)
UGGUAGCAAUAUUACGCUGG | -2.08 ± 0.2 | -2.52 ± 0.2
GGGCAGCAAUAUUACGAAGU | -1.95 ± 0.14 | -0.794 ± 0.21
CACGAGCAAUAUUACGCACU | -2.87 ± 0.39 | -1.61 ± 0.23
UAACAGCAAUAUUACGUAAA | -2.6 ± 0.089 | -0.884 ± 0.084
CACUAGCAAUAUUACGACCU | -2.03 ± 0.28 | -1.6 ± 0.18
AUACAGCAAUAUUACGCGCG | -0.869 ± 0.1 | -1.07 ± 0.093
CCUUAGCAAUAUUACGAAUC | -2.65 ± 0.36 | -1.38 ± 0.34
CUAUAGCAAUAUUACGUCCG | -0.823 ± 0.11 | 0.0188 ± 0.13
GGCAAGCAAUAUUACGUAGG | -1.09 ± 0.061 | -0.937 ± 0.088
UCUUAGCAAUAUUACGCCUU |  | -1.86 ± 0.3
GAAAAGCAAUAUUACGUGCG | -1.44 ± 0.095 | 0.264 ± 0.12
GUUGAGCAAUAUUACGAAUC | -1.91 ± 0.26 | 0.505 ± 0.25
CGUUAGCAAUAUUACGUAGG | -0.104 ± 0.093 | -0.845 ± 0.14
GAUUAGCAAUAUUACGGCAG | -2.78 ± 0.31 | -1.84 ± 0.23
CUGGAGCAAUAUUACGUAGU |  | -3.43 ± 0.46
AUAAAGCAAUAUUACGUCGG | -1.28 ± 0.075 | -0.774 ± 0.089
CCCUAGCAAUAUUACGAAAA | -2.83 ± 0.2 | -3.22 ± 0.27
UAGAAGCAAUAUUACGUGCC | -2.13 ± 0.22 | -0.962 ± 0.19
UGCCAGCAAUAUUACGGGCC | -3.23 ± 0.21 | -1.73 ± 0.2
ACCGAGCAAUAUUACGGAAA | -2.92 ± 0.12 | -2.5 ± 0.12
GGCAAGCAAUAUUACGUAAU | 0.0253 ± 0.063 | 0.562 ± 0.074
GAUAAGCAAUAUUACGAAAU | -1.13 ± 0.13 | -1.11 ± 0.15
AGAUAGCAAUAUUACGGGUC | -3.73 ± 0.25 | -2.36 ± 0.25
GGGAAGCAAUAUUACGACAC | -0.539 ± 0.25 | 0.0269 ± 0.38
GCUUAGCAAUAUUACGCAGG | -1.27 ± 0.19 | -2.97 ± 0.27

Sequence | self-splicing fitness (ln) (30 °C) | self-splicing fitness (ln) (37 °C)
AUAAAGCAAUAUUACGUCAG | -1.6 ± 0.12 | -0.647 ± 0.12
UUGAAGCAAUAUUACGUUUG | -1.6 ± 0.12 | -0.811 ± 0.19
UCUAAGCAAUAUUACGCGAC |  | -2.84 ± 0.36
ACCCAGCAAUAUUACGAGAG | -2.16 ± 0.086 | -0.789 ± 0.09
CGGCAGCAAUAUUACGAUAU | -4.27 ± 0.23 | -1.51 ± 0.098
AGCUAGCAAUAUUACGCCGU | -1.23 ± 0.13 | -1.2 ± 0.16
AGAAAGCAAUAUUACGCAAG | -1.66 ± 0.13 | -1.32 ± 0.18
AAAAAGCAAUAUUACGGGGA | -1.74 ± 0.13 | -1.8 ± 0.13
CGCGAGCAAUAUUACGCUCU |  | -0.833 ± 0.33
UCCCAGCAAUAUUACGCAUC | -4.39 ± 0.42 | -1.85 ± 0.22
ACAAAGCAAUAUUACGGCGU | -1.78 ± 0.075 | -1.17 ± 0.093
UCAAAGCAAUAUUACGUUAU | -3.43 ± 0.18 | -3.37 ± 0.35
GGGCAGCAAUAUUACGGCGG | -1.76 ± 0.12 | -1.99 ± 0.17
GACAAGCAAUAUUACGAGAC | -2.95 ± 0.27 | -2.29 ± 0.27
GUCAAGCAAUAUUACGAAAC | -1.37 ± 0.27 | 0.108 ± 0.3
UGCGAGCAAUAUUACGACAU | -3.628 ± 0.028 | -2.26 ± 0.039
ACAAAGCAAUAUUACGAUAG | -3.47 ± 0.17 | -2.21 ± 0.19
ACCCAGCAAUAUUACGCCCA | -0.605 ± 0.12 | -0.4 ± 0.13
UGCAAGCAAUAUUACGAGAC | -4.03 ± 0.46 | -2.05 ± 0.34
GGCGAGCAAUAUUACGACGG | -3.28 ± 0.38 | -3.37 ± 0.47
ACUAAGCAAUAUUACGUCCG | -1.69 ± 0.12 | -0.322 ± 0.17
CCUUAGCAAUAUUACGCGUC | -4.42 ± 0.39 | -2.91 ± 0.31
UUUCAGCAAUAUUACGAUCU | -2.25 ± 0.19 | -0.561 ± 0.17
AUUAAGCAAUAUUACGCAUC | -3.36 ± 0.31 | -1.24 ± 0.25
GUACAGCAAUAUUACGACGC | -0.428 ± 0.092 | -0.206 ± 0.1

Sequence | self-splicing fitness (ln) (30 °C) | self-splicing fitness (ln) (37 °C)
CUAGAGCAAUAUUACGUUAC | -2.88 ± 0.27 | 
UGAUAGCAAUAUUACGCGCC | -1.82 ± 0.36 | 0.00337 ± 0.21
AUAUAGCAAUAUUACGCUGU | -2.9 ± 0.22 | -2.32 ± 0.21
AGCGAGCAAUAUUACGGUAC | -3.58 ± 0.36 | 
UUCUAGCAAUAUUACGACGG | -1.31 ± 0.1 | -1.77 ± 0.15
UGGCAGCAAUAUUACGUGCA | -0.0165 ± 0.1 | -0.0321 ± 0.14
AUCCAGCAAUAUUACGGUCG | -0.645 ± 0.058 | 0.12 ± 0.089
GAAGAGCAAUAUUACGAGUG | -4.54 ± 0.41 | -2.81 ± 0.24
CUAAAGCAAUAUUACGUGAC | -1.12 ± 0.051 | -0.411 ± 0.078
ACUGAGCAAUAUUACGUGCG | -3 ± 0.13 | -1.28 ± 0.11
CGUUAGCAAUAUUACGUGUA | -3.37 ± 0.25 | -3.03 ± 0.34
AGUCAGCAAUAUUACGAGUG | -2.14 ± 0.079 | -0.966 ± 0.095
UGCCAGCAAUAUUACGUCCC | -2.89 ± 0.31 | -1.71 ± 0.43
AUAUAGCAAUAUUACGUUUC | -2.54 ± 0.27 | -1.45 ± 0.3
GACUAGCAAUAUUACGCAAG | -4.58 ± 0.36 | -1.6 ± 0.15
GCCCAGCAAUAUUACGAUUA | -1.71 ± 0.1 | -0.936 ± 0.089
UGUUAGCAAUAUUACGAUGA | -0.408 ± 0.09 | -1.06 ± 0.092
UGCCAGCAAUAUUACGGUUC | -3.35 ± 0.2 | -1.81 ± 0.14
GCCAAGCAAUAUUACGUGCC | -3.36 ± 0.25 | -0.392 ± 0.17
GCUUAGCAAUAUUACGAAGG | -0.605 ± 0.12 | -0.64 ± 0.21
CAACAGCAAUAUUACGCGUC | -3.55 ± 0.22 | -1.98 ± 0.13
GCAGAGCAAUAUUACGUAUG | -2.86 ± 0.35 | -1.4 ± 0.42
